We go through six molecules from paper PMC10289234, “Construction of an alpaca immune antibody library for the selection of nanobodies against Drosophila melanogaster proteins” (Frontiers in Bioengineering and Biotechnology, 2023).

Like-named read-outs stand apart in the source and are kept apart here.

In assay [1] the target is T1, Drosophila CG7544, full length (Drosophila melanogaster (Fruit fly)., UniProt Q7K3B9).
T1 construct: CG7544 of Drosophila melanogaster, 305 aa, RNA N6-methyltransferase of U6 small nuclear RNA; full length, PCR-amplified from Drosophila cDNA and cloned into pET-28a; also called CG7454 (misprint in the results)
T1 sequence (Q7K3B9 whole entry): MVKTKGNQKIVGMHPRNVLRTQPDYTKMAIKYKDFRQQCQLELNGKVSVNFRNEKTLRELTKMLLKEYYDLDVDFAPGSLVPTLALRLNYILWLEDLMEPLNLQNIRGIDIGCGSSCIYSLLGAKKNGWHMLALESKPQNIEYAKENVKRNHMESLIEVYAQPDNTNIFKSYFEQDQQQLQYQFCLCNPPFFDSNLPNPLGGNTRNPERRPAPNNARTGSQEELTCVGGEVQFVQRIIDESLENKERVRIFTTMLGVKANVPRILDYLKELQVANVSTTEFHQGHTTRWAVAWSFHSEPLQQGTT
The experiment in a line: ELISA; 96-well plate coated with 1 ug/well purified antigen, blocked with 3% BSA; 1 ug purified VHH for 2 h at RT; anti-Flag antibody, HRP anti-mouse, TMB, absorbance at 450 nm; negative controls without Flag antibody or VHH. The following applies: both partners purified.

Assay [2] has as its target T2, Drosophila CyclinE, amino acids 1-361 (truncated CyclinE) (Drosophila melanogaster (Fruit fly)., UniProt P54733).
T2 construct: CyclinE of Drosophila melanogaster, 709 aa, amino acids 1-361, PCR-amplified from cDNA and cloned into pET-28a-GFP-TEV; Vector pET-28a-GFP-TEV was built in the authors' laboratory; also called CycE; source: E. coli BL21 (DE3); not shown: GFP, N-terminal, cleaved
The experiment in a line: ELISA; colonies of the third-round sublibrary tested on a 96-well plate coated with CyclinE, blocked with 3% BSA; absorbance at 405 nm twofold over negative control wells counted as positive. Conditions: one partner purified.

Assay [3] has as its target T1, Drosophila CG7544, full length.
Assay [4] concerns the target Drosophila Myc, amino acids 1-400 (truncated Myc) (Drosophila melanogaster, strain not …, UniProt Q9W4S7).

Chain of Drosophila Myc, amino acids 1-400 (truncated Myc) (Q9W4S7 1-400): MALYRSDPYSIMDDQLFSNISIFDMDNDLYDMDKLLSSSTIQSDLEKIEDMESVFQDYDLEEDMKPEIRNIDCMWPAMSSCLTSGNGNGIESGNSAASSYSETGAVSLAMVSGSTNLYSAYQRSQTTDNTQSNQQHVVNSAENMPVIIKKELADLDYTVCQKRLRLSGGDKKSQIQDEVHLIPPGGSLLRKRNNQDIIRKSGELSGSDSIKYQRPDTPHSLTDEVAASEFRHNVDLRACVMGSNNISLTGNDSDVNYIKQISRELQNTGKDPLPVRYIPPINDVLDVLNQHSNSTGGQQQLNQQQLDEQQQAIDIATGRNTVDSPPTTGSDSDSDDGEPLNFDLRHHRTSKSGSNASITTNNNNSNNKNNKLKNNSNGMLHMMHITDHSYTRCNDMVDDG
T2 sequence (P54733 1-361): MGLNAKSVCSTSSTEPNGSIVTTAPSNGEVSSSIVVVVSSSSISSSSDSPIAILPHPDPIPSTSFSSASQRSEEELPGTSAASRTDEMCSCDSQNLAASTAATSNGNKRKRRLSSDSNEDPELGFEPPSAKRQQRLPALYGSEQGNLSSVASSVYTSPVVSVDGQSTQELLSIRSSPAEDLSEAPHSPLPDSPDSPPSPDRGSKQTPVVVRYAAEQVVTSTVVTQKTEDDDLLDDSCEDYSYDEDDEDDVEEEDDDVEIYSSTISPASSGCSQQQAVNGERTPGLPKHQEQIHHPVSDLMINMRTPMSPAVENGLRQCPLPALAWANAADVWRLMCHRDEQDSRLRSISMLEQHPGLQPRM

B1: C3, nanobody against CG7544 (Flag-Nb-His) (VHH)
VHH: DVQLQESGGGLVQAGGSLRLSCAASGNTLSTYGMGWFRQAPGKEREFVALINWGGTANYEDSVKGRFTISRDNVQNTMYLQMNNLKPEDTAVYYCFLGTYWGQGTWSPSPA
notes: not shown: Flag, N-terminal, kept
B1: the binding result in assay [1] is recorded as “binds”.

B2: N1, VHH of a colony from the third-round sublibrary of CyclinE (VHH)
VHH: DVQLQESGGGLVQAGGSLRLSCAASGGTFSRYSMGWFRQAPGKEREFVSAIGWSGYSTRYADSVKGRFTISRDNAKNTVYLQMNSLKPEDTAVYYCNAIVGVFIKRQYWGQGTQVTVSS
notes: The colony ELISA follows Fang et al., 2020; source: randomly selected colony from the third-round sublibrary of CyclinE (vhh in phage display vector pADL-10b), not purified
Consider B2, for which, in assay [2], the binding result was “binds”.

B3: C8 (VHH)
VHH: DVQLQESGGGLVQAGGSLRLSCAASGLTSSYYAIGWFRQAPGKDSEGVSCLDTTGNRINLSNSAKGRFTISRDNAKNTVYLQMNNLKPEDTAIYYCTVVLNSLCDSRWIGAFGSWGQGTQVTVSS
Turning to B3, the binding result in assay [3] is reported as “binds”.

B4: B12 (VHH)
VHH: DVQLQESGGGLVQPGGSLRLSCAASGFTFEAYTMSWVRQAPGKGLEWVSAISQGGATTAYADSVKGRFTISRDNAKSTLYLQMNNLKPEDTAVYYCAKWVFTPSVLGQGTQVTVSS
With B4, the binding result in assay [4] was “binds”.

B5: C4 (VHH)
VHH: DVQLQESGGGLVQPGGSLRLSCAASGFTFDSNAFGWFRQAPGKEREGVSCISARDSTTFYADAVKGRFTVSRDSAKNTVYLEMDSLKPEDTAVYYCATLYRATAQAMCAMSTLLGYWGQGTQVTVSS
Regarding B5, the Kd in assay [3] amounted to 10.5 µM. This counts as double-digit micromolar.

B6: C9 (VHH)
VHH: DVQLQESGGTLVQPGGSLRLSCKASGFPFSDYHMSWVRQAPGKRPEWLSVITTSGDWTHYADSVKGRFAISRDNAKSTLYLQMNSLKPDDTAVYYCARGHYIILGQGTQVTVSS
In the case of B6, in assay [4], the binding result is on record as “binds”.
